Assay results taken from patent US20110262446A1.
Residue numbers refer to the chain shown, from its start.

Assays:
[1] = biological target: IGF-IIE (amino acids 1-104) (human) (UniProt P01344); test: competition SPR (Biacore T100), affinity in solution: Fab pre-incubated with ligand, free ligand read on immobilized huIR-A ECD; measurement #2; head prints 'KD nM'
[2] = biological target: IGF-IIE (amino acids 1-104) (human) (UniProt P01344); test: SPR (Flexchip), Fab, first of duplicate; unit inferred
[3] = biological target: IGF-IIE (amino acids 1-104) (human) (UniProt P01344); test: cell-based or functional assay
[4] = biological target: IGF-IIE (amino acids 1-104) (human) (UniProt P01344); test: competition SPR (Biacore T100), affinity in solution: Fab pre-incubated with ligand, free ligand read on immobilized huIR-A ECD; measurement #1; head prints 'KD nM'
[5] = biological target: IGF-IIE (amino acids 1-104) (human) (UniProt P01344); test: SPR (Biacore T100): IgG captured on Protein G', ligand bound, then BP injected; competitor BP4
[6] = biological target: IGF-IIE (amino acids 1-104) (human) (UniProt P01344); test: SPR (Biacore T100): IgG captured on Protein G', ligand bound, then BP injected; competitor BP2
[7] = biological target: IGF-IIE (amino acids 1-104) (human) (UniProt P01344); test: SPR (Flexchip), Fab, second of duplicate; unit inferred
[8] = biological target: IGF-IIE (amino acids 1-104) (human) (UniProt P01344); test: SPR (Biacore), germlined IgG
[9] = biological target: IGF-IIE (amino acids 1-104) (human) (UniProt P01344); test: SPR (Biacore), non-germlined IgG

Sequence of IGF-IIE (amino acids 1-104) (human) (P01344 25-128 limits assumed, form in doubt): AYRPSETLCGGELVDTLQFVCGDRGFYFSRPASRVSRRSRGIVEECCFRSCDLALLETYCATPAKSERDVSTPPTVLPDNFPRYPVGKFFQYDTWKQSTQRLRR

B1: M0072-C06 Fab (Fab, V domains shown)
VH: EVQLLESGGGLVQPGGSLRLSCAASGFTFSAYIMTWVRQAPGKGLEWVSSISPSGGYTVYADSVKGRFTISRDNSKNTLYLQMNSLRAEDTAVYYCARDSGFGDPFDYWGQGTMVTVSS
VL: DIQMTQSPSSLSASVGDRVTITCRASQSIRNYLNWYQQKPGKAPKLLIYAASKLEDGVPSRFSGSGTGTDFTLTIRSLQPEDFASYFCQQSYSSPGITFGPGTKVEIKR
Kd [1]: 1.05 nM | Kd [2]: 0.52 nM | IC50, IGF-IIE stimulated BA/F3 cell proliferation (MTS) [3]: 2.3 µg/mL | Kd [4]: 3.95 nM

B2: M0072-C06 IgG (antibody, V domains shown)
VH: B1 VH
VL: DIQMTQSPSSLSASVGDRVTITCRASQSIRNYLNWYQQKPGKAPKLLIYAASKLEDGVPSRFSGSGTGTDFTLTIRSLQPEDFASYFCQQSYSSPGITFGPGTKVEIK
competition score (0 = does not compete significantly, 5 = competes strongly) [5]: 1 score 0-5 | competition score (0 = does not compete significantly, 5 = competes strongly) [6]: 2 score 0-5

B3: M0063-F02 Fab (Fab, V domains shown)
VH: EVQLLESGGGLVQPGGSLRLSCAASGFTFSKYEMDWVRQAPGKGLEWVSVISSSGGGTIYADSVKGRFTISRDNSKNTLYLQMNSLRAEDTAMYYCARGRTLYGGAFDIWGQGTMVTVSS
VL: DIQMTQSPSSLSASVGDRVTITCRASQPINTYLNWYQQRPGKAPRILIYTSSTLQSGVPSRFSGSGSGTDFTLTISSVQPEDFATYYCQQSYSFPLTFGGGTKVEIKR
Kd [7]: 0.2 nM | Kd [1]: 1.47 nM | Kd [2]: 0.12 nM | IC50, IGF-IIE stimulated BA/F3 cell proliferation (MTS) [3]: 2.04 µg/mL | Kd [4]: 2.78 nM

B4: M0063-F02 IgG (antibody, V domains shown)
VH: B3 VH
VL: DIQMTQSPSSLSASVGDRVTITCRASQPINTYLNWYQQRPGKAPRILIYTSSTLQSGVPSRFSGSGSGTDFTLTISSVQPEDFATYYCQQSYSFPLTFGGGTKVEIK
competition score (0 = does not compete significantly, 5 = competes strongly) [5]: 1 score 0-5 | IC50, IGF-IIE stimulated BaF3 cell proliferation (Guava ViaCount) [3]: 0.85 nM | IC50, IGF-IIE stimulated BaF3 cell proliferation (Guava ViaCount), second study [3]: 10 nM | competition score (0 = does not compete significantly, 5 = competes strongly) [6]: 1 score 0-5

B5: M0070-H08 IgG (antibody, V domains shown)
VH: EVQLLESGGGLVQPGGSLRLSCAASGFTFSRYWMIWVRQAPGKGLEWVSSIRSSGETKYADSVKGRFTISRDNSKNTLYLQMNSLRAEDTAVYYCARGPLSDYYDSSGYYFDAFDIWGQGTMVTVSS
VL: DIQMTQSPSSLSASAGDRVTITCRASQSISSYLNWYQQKPGKAPNLLIYTTSNLQGGVPSRFSGSGSGTDFTLTISSLQPEDFATYYCQQGYSFPLTFGGGTKVEIK
competition score (0 = does not compete significantly, 5 = competes strongly) [5]: 1 score 0-5 | competition score (0 = does not compete significantly, 5 = competes strongly) [6]: 2 score 0-5

B6: M0070-H08 Fab (Fab, V domains shown)
VH: B5 VH
VL: DIQMTQSPSSLSASAGDRVTITCRASQSISSYLNWYQQKPGKAPNLLIYTTSNLQGGVPSRFSGSGSGTDFTLTISSLQPEDFATYYCQQGYSFPLTFGGGTKVEIKR
Kd [7]: 0.39 nM | Kd [2]: 0.36 nM | Kd [4]: 4.83 nM

B7: X0008-A01 (germlined M0064-F02 IgG) (antibody, V domains shown)
VH: EVQLLESGGGLVQPGGSLRLSCAASGFTFSNYIMWWVRQAPGKGLEWVSVISSSGGMTRYADSVKGRFTISRDNSKNTLYLQMNSLRAEDTAVYYCARDNGDYVGEKGFDIWGQGTMVTVSS
VL: DIQMTQSPSSLSASVGDRVTITCRASQSISNYLNWYQQKPGKAPKLLIYTASTLQSGVPSRFSGSGSGTDFTLTISSLQPEDFATYYCQQSYNSPWTFGQGTKVEIK
Kd [8]: < 0.023 nM

B8: M0064-E04 IgG (antibody, V domains shown)
VH: EVQLLESGGGLVQPGGSLRLSCAASGFTFSVYDMNWVRQAPGKGLEWVSSISSSGGGTLYADSVKGRFTISRDNSKNTLYLQMNSLRAEDTAVYYCARDSDTSSYYWYYDLWGRGTLVTVSS
VL: DIQMTQSPSSLSASVGDRVTITCQASHDISNYLNWYQQKPGKAPKLLIYAASRLQSGVPSRFSGGGSGTDFSLTISSLQAEDFATYYCQQSYSFPRTFGQGTNLEIK
competition score (0 = does not compete significantly, 5 = competes strongly) [5]: 4 score 0-5 | Kd [9]: 0.24 nM | IC50, IGF-IIE stimulated BaF3 cell proliferation (Guava ViaCount) [3]: 130 nM | competition score (0 = does not compete significantly, 5 = competes strongly) [6]: 4 score 0-5

B9: X0005-H01 (germlined M0064-E04 IgG) (antibody, V domains shown)
VH: B8 VH
VL: B8 VL with G65S, S72T, A80P, N103R
Kd [8]: 0.26 nM
